Measurements published in publication PMC9288427, “The CIP2A-TOPBP1 complex safeguards chromosomal stability during mitosis” (Nature Communications, 2022).

Target: T1, GST-tagged CIP2A Armadillo repeat domain (ArmRD, aa 1-559) (human, UniProt Q8TCG1 1-559)
T1 construct: CIP2A, human, aa 1-559 (bases 1 through 1677 of the full length cDNA) cloned into pGEX-4T3; the results give the ArmRD as amino acids 1-560; the methods give the construct as aa 1-559; also called GST-ArmRP of CIP2A; GST-tagged ArmRD
Test: pull-down; 800 µg CHO protein extract with HA-TOPBP1 aa740-899 bound to anti-HA agarose beads (1 h, 4 °C), unbound fraction washed away, 5 µg purified GST-tagged ArmRD added for 90 min at 4 °C, washed 3 x 15 min with cold PBS; Western blot
Settings: both partners purified

B1: HA-tagged TOPBP1 aa740-899 fragment expressed in ExpiCHO-S cells (domain or fragment, human, UniProt Q92547 740-899, looked up)
chain: NSTKEERSLETEITNGINLNSDTAEHPGTRLQTHRKTVVTPLDMNRFQSKAFRAVVSQHARQVAASPAVGQPLQKEPSLHLDTPSKFLSKDKLFKPSFDVKDALAALETPGRPSQQKRKPSTPLSEVIVKNLQLALANSSRNAVALSASPQLKEAQSEKE
notes: Same construct as m1, other host; source: ExpiCHO-S, transfected; not shown: HA, N-terminal, kept
B1: binds.
